Where two headings read alike, the source gives them in different places.
Key:
[1] = target: T1, LbCas12a (Cas12a, NEB M0653T) (Lachnospiraceae bacterium, UniProt A0A5S8WF58 1-1228); test: activation kinetics
[2] = target: T1, LbCas12a (Cas12a, NEB M0653T); test: activation kinetics; remark: listed apart in the source

B1: crRNA-A2 + A2 ssDNA target (mixed)
RNA: UAAUUUCUACUAAGUGUAGAUCAUGCCAAUGCGCGACAUUC
DNA: TTCTTCGGAATGTCGCGCATTGGCATGGAAGTCACACCTT
**Q.** With B1 as the binder, how does the Kd [1] read?
**A.** 1.1 ± 0.4 nM

B2: crRNA-A2 + A2 ssDNA-t target (mixed)
RNA: B1 RNA
DNA: TCGGAATGTCGCGCATTGGCATGGAAGTCACACCTT
**Q.** How did the Kd [1] turn out when B2 was run?
**A.** 1.4 ± 0.7 nM

B3: crRNA-A19 + A19 ssDNA target (mixed)
RNA: UAAUUUCUACUAAGUGUAGAUGACAUUUUGCUCUCAAGCUG
DNA: ATTGAACCAGCTTGAGAGCAAAATGTCTGGTAAAGGCCAA
**Q.** B3 was tested. Which Kd [2] did it give?
**A.** 0.36 ± 0.26 nM

B4: crRNA-A19 + A19 ssDNA-t target (mixed)
RNA: B3 RNA
DNA: AACCAGCTTGAGAGCAAAATGTCTGGTAAAGGCCAA
**Q.** With B4 as the binder, how does the Kd [2] read?
**A.** 0.3 ± 0.25 nM

From publication PMC11077072
